Where no end group is shown, it is not given here. [ ]: non-standard residue; d: D form. pGlu = O=C1CC[C@@H](C(=O)O)N1
Assays:
[1] = system: autologous little gastrin (G17RM); assay: Cynomolgus monkeys immunized, serum IgG (MSD multiplex ELISA) against autologous little gastrin; assay type: in vivo, rhesus and cynomolgus monkey; conditions: 6 Cynomolgus monkeys, immunized d0, d14, d28; serum d0-d56
Excerpt: Time curve IgG anti G17 induction, after three injections with the vaccine (TYG100_2RM) on d0, d14 and d28. • A significant IgG induction was seen against the ScFV-coil1 and G17RM and G17H. No response was seen against a control peptide of similar molecular weight or when the animals were immunized with G17RM_2 without the presence of warhead.
6 Cynomolgus monkeys were immunized with TYG100_2RM and 6 were immunized with G17RM_2-coil on d0, d14 and d28. On d0, d14, d28, 42 and d56 serum was analyzed for the presence of IgG antibodies against autologous little gastrin (G17RM), little gastrin from humans (G17H), an irrelevant control peptide of similar MW as gastrin (control peptide) or against warhead (ScFV-coil1) using the multiplex ELISA system of Meso Scale Discovery (MSD) according to the MSD manual. […] The response against G17RM after three immunizations was 75% of the response against ScFV-coil1. This is remarkable since G17RM is a 100% autologous protein of only ˜1.2 kDa whereas ScFV-coil1 is a 100% allogeneic protein of >30 kDa. The anti G17RM antibodies cross reacted strongly with G17H. There was no response against G17RM when the G17RM_2-coil peptide was used without the warhead.

[2] = system: G17RM; assay: Balb/c mice immunized with TYG100 vaccine, serum IgG titre against G17RM; assay type: in vivo, mouse; conditions: peptide immunized without the warhead, Example 14
Protocol: (§1) 6 Balb/c Mice were immunized 3 times on day 0, day 14 and day 35 with TYG100_1RM or G17_1RM (without warhead) containing rhesus monkey G17 (58.4 μg/shot in 0.5 ml). Two weeks after last immunization, serum was taken and analyzed for the presence of IgG antibodies against G17RM, G17H and G17M (=G17 from the mouse)
as §1, with “TYG100_2RM” for “TYG100_1RM or G17_1RM (without warhead)”, “containing the first 13 immuno acids of” for “containing”, “(66.8” for “(58.4”

[3] = system: PBMC of Der p1 sensitized normal donors; assay: Stimulation of human PBMC with immunogen 5-12, IL-10 and IFNg ELISA (Example 10); assay type: cell-based; conditions: 24 h, 5, 1 or 0.5 μg/ml vs 3 μg/ml Der p1
Protocol: PBMCs of healthy human donors were cultured for 24 h in triplicate with Der p1 or immunogen 5. Supernatants were harvested and assayed for IL-10 and […] levels (each indicated as pg/ml; BDL=below detection limit) • Human T cells respond equally well to immunogen 5 as to Der p1, as measured by IL-10 and IFNg induction.
PBMC (100.000/well) of Der p1 sensitized normal donors were cultured in triplicate with medium, 3 μg/ml Der p1 or 5, 1 or 0.5 μg/ml immunogen 5-12 (Immo5-12) at 37° C./5% CO2 for 24 h. Supernatants were assayed in duplicate for IL-10 and IFNg levels using a commercially-available ELISA kits (eBioscience) in accordance with the manufacturer's instructions.

[4] = system: ScFV-1-coil; assay: Mice immunized with ScFV-1-coil or warhead, serum IgG1 and IgG2a ELISA against ScFV-1-coil; assay type: in vivo; conditions: s.c. 2× 35 μg d0, d14, on Alum or in PBS, sera day 28
Protocol: (§2) 24 mice (6/group) were immunized s.c. 2× with 35 μg in 150 μl ScFV-1-coil or with warhead (ScFV-1-coil-M362) either formulated on Alum or diluted in PBS. Immunizations were done on d0, and d14, sera were taken on d0 (before immunization) and d28 and analyzed for IgG1 and IgG2a against ScFV-1-coil (indicated as ScFV) and mAb IV.3 by standard ELISA.

[5] = system: mAb IV.3; assay: Mice immunized with ScFV-1-coil or warhead, serum IgG1 and IgG2a ELISA against mAb IV.3; assay type: in vivo, mouse; conditions: s.c. 2× 35 μg d0, d14, on Alum or in PBS, sera day 28
Protocol: as §2

[6] = system: PBMC of Der p1 sensitized rhesus monkeys; assay: Proliferation ([3H]-thymidine) of PBMC of Der p1 sensitized rhesus monkeys (Example 6); assay type: cell-based, rhesus monkeys (macaca mulatta); conditions: 3 and 5 μg/ml immunogen 3 vs Der p1, 2-day culture, 20 U/ml IL-2
Protocol: (§3) PBMCs from Der p1 sensitized rhesus monkeys (macaca mulatta) were cultured in triplicate with Der p1 or immunogen 3. Proliferation was assayed by the incorporation of [^3H]-thymidine. Results are shown as counts per minute.
(§4) PBMC (100.000/well) of Der p1 sensitized rhesus monkeys (macaca mulatta) were cultured in triplicate with medium, 3 Der p1 or 3 and 5 μg/ml immunogen 3 at 37° C./5% CO2. in the presence of 20 U/ml IL-2. Proliferation was assayed by the incorporation of [^3H]-thymidine (0.5 μCi/well) during the final 18 hrs of a 2-day culture. Cells were harvested for β-scintillation counting (Topcount NXT, Packard, Ramsey, Minn., USA). Results are shown as counts per minute. In addition from parallel cultures, supernatants were assayed in duplicate for IL-10 and GM-CSF levels using a commercially-available ELISA kit (U-Cytech, Utrecht, The Netherlands) in accordance with the manufacturer's instructions.

[7] = system: PBMC of Der p1 sensitized rhesus monkeys; assay: IL-10 and GM-CSF ELISA in supernatants of PBMC of Der p1 sensitized rhesus monkeys (Example 6); assay type: cell-based, rhesus monkeys (macaca mulatta); conditions: 3 and 5 μg/ml immunogen 3 vs Der p1, parallel cultures
Protocol: as §3, §4

[8] = system: PBMC of Der p1 sensitized rhesus monkeys; assay: Warhead mediated enhanced antigen presentation, PBMC proliferation (Example 7); assay type: cell-based, rhesus monkeys (macaca mulatta)
Protocol: […] proliferation (assayed by the incorporation of [^3H]-thymidine) of Rhesus monkey (macaca mulatta) T cells after pre incubation for 30 ‘on ice with respectively warhead and Der p1 or warhead and immunogen 3. After each pre-incubation the cells were washed. (bdl=below detection limit). • Only when the immunogen could interact with the warhead through its coil (immunogen3) T cell proliferation in a dose dependent fashion could be seen. […] As positive control Der p1 is shown to be reactive after overnight incubation (without washing). • Warhead mediated antigen uptake is more efficient than uptake through pinocytosis
PBMC (100.000/well) of Der p1 sensitized rhesus monkeys (macaca mulatta) were preincubated (30 min on ice) with 1 μg/ml of warhead ScFV and washed 3 times with PBS or preincubated with PBS only and washed three times. Subsequently these cells incubated (30 min on ice) with different concentrations of Immunogen 3 or Der p1 at 3 μg/ml and washed 3 times with PBS after which the cells were culture at 37° C./5% CO2 in the presence of 20 U/ml IL-2 for 48 hours. As a positive control PBMCs (without warhead preincubation) were incubated with 3 μg/ml Der Pb without washing and cultured at 37° C./5% CO2 in the presence of 20 U/ml IL-2. Proliferation was assayed by the incorporation of [^3H]-thymidine (0.5 μCi/well) during the final 18 hrs of a 2-day culture. Cells were harvested for β-scintillation counting (Topcount NXT, Packard, Ramsey, Minn., USA). Results are shown as counts per minute.

[9] = PBMC preincubated with 1 μg/ml warhead ScFV, washed, incubated 30 min on ice with antigen, cultured 48 hours

Molecule: G17RM_2-coil: SEQ ID 103: two rhesus monkey gastrin peptides of SEQ ID 99, branched linker and pepK coil (EGPWMEEEEAAYGGGK(EGPWMEEEEAAYGGG)GGSGGKVSALKEKVSALKEKVSALKEKVSALKEKVSALKE)
- IgG response to G17RM [1]: no response

Molecule: [pGlu]GPWMEEEEAAYGGGSGGKVSALKEKVSALKEKVSALKEKVSALKEKVSALKE [G17-peptide]
- response against G17 [2]: no response

B1: immunogen 5: SEQ ID 30/75: ~29 T cell epitopes of ten Der p allergens with His tag, linkers and pepK coil (protein)
chain 1: GVLACAIATHAKIREQERLVKLETVKKSLEQEVRTLHVRIEEVEANALAGGDLRQMRTVTPIRMQGGCGSCWEAHEQQIRIMTTKLKEAEARQQYDIKYTWNVPKIAVNIVGYSNAQGVDYWIVRNSWDTNWYHNPHFIGNRSVITHLMEDLKGELDMRNIQVRGLKQMKRVGDANVKSEDDAFRHYDGRTIIQRDNGYQPNYLDEYWILTAAHCVDGQTVSKLIRSKVLGEKISYYRYVAREQSCRRPNAQRFGISNYCVVVTVKVMGDDELHTYFNVNYTMHYYLNNGATRDILDEYWILTAAHCVAGQTASKLSIRYNSLKHSLFKYRPFKVNELNLEGEFGRELQHKFRLMRNSQMEVEEGGGSHHHHHHGGGSCGGKVSALKEKVSALKEKVSALKEKVSALKEKVSALKE
chain 2: GVLACAIATHAKIREQERLVKLETVKKSLEQEVRTLHVRIEEVEANALAGGDLRQMRTVTPIRMQGGCGSCWEAHEQQIRIMTTKLKEAEARQQYDIKYTWNVPKIAVNIVGYSNAQGVDYWIVRNSWDTNWYHNPHFIGNRSVITHLMEDLKGELDMRNIQVRGLKQMKRVGDANVKSEDDAFRHYDGRTIIQRDNGYQPNYLDEYWILTAAHCVDGQTVSKLIRSKVLGEKISYYRYVAREQSCRRPNAQRFGISNYCVVVTVKVMGDDELHTYFNVNYTMHYYLNNGATRDILDEYWILTAAHCVAGQTASKLSIRYNSLKHSLFKYRPFKVNELNLEGEFGRELQHKFRLMRNSQMEVEEGGGSHHHHHHGGGSCGGKVSALKEKVSALKEKVSALKEKVSALKEKVSALKE
modifications: Immunogen-coil
- IFNg induction, response compared with Der p1 [3]: equally well
- IL-10 induction, response compared with Der p1 [3]: equally well

B2: warhead (conjugate)
scFv: EVQLQQSGPELKKPGETVKISCKASGYTFTNYGMNWVKQAPGKGLKWMGWLNTYTGESIYPDDFKGRFAFSSETSASTAYLQINNLKNEDMATYFCARGDYGYDDPLDYWGQGTSVTVSSGGGGSGGGGSGGGGSDIVMTQAAPSVPVTPGESVSISCRSSKSLLHTNGNTYLHWFLQRPGQSPQLLIYRMSVLASGVPDRFSGSGSGTAFTLSISRVEAEDVGVFYCMQHLEYPLTFGAGTKLELKGSISAWSHPQFEKGPEVSALEKEVSALEKEVSALEKEVSALEKEVSALEK
- IgG1 response to ScFV-1-coil [4]: strong
- IgG2a response to ScFV-1-coil [4]: strong
- IgG1 response to mAb IV.3 [5]: strong
- IgG2a response to mAb IV.3 [5]: strong

B3: ScFV-1-coil: SEQ ID 70: ScFV derived from anti-CD32a mAb IV.3 with StrepTag II and pepE coil (protein)
scFv: EVQLQQSGPELKKPGETVKISCKASGYTFTNYGMNWVKQAPGKGLKWMGWLNTYTGESIYPDDFKGRFAFSSETSASTAYLQINNLKNEDMATYFCARGDYGYDDPLDYWGQGTSVTVSSGGGGSGGGGSGGGGSDIVMTQAAPSVPVTPGESVSISCRSSKSLLHTNGNTYLHWFLQRPGQSPQLLIYRMSVLASGVPDRFSGSGSGTAFTLSISRVEAEDVGVFYCMQHLEYPLTFGAGTKLELKGSISAWSHPQFEKGPEVSALEKEVSALEKEVSALEKEVSALEKEVSALEK
modifications: ScFV-coil
- IgG1 response to ScFV-1-coil [4]: only in the presence of Alum
- IgG2a response to ScFV-1-coil [4]: no IgG2a response

B4: immunogen 3: SEQ ID 23/74: Der P1 and Der P2 T cell epitopes with His tag, linker and pepK coil (protein)
chain 1: HHHHHHYYRYVAREQSCRRPNAQRFGISNYCQIYPPNVNKIREALAQTHSAIAVDLRQMRTVTPIRMQGGCGSCWAFSGVAATESAYLQQYDIKYTWNVPKIAPKSENVVVTVKVMGDDGVLACAIATHAKIRDDAFRHYDGRTIIQRDNGYQPNYHAVNIVGYSNAQGVDYWIVRNSWDTNWHEIKKVLVPGCHGSEPCIIHRGKPFGGGSGGGSCGGKVSALKEKVSALKEKVSALKEKVSALKEKVSALKE
chain 2: HHHHHHYYRYVAREQSCRRPNAQRFGISNYCQIYPPNVNKIREALAQTHSAIAVDLRQMRTVTPIRMQGGCGSCWAFSGVAATESAYLQQYDIKYTWNVPKIAPKSENVVVTVKVMGDDGVLACAIATHAKIRDDAFRHYDGRTIIQRDNGYQPNYHAVNIVGYSNAQGVDYWIVRNSWDTNWHEIKKVLVPGCHGSEPCIIHRGKPFGGGSGGGSGGKVSALKEKVSALKEKVSALKEKVSALKEKVSALKE
modifications: Immunogen-coil
- proliferation, response compared with Der p1 [6]: non-significant difference
- cytokine production (IL-10 and GM-CSF), response compared with Der p1 [7]: non-significant difference
- proliferation of PBMC [8, 9]: dose dependent stimulation
- stimulation relative to positive control ([8]; after warhead ScFV preincubation, positive control = PBMC cultured 48 h with 3 μg/ml Der p1 without washing): even higher than the positive control
- proliferation of PBMC ([8]; preincubated immunogen in the absence of warhead (data not shown)): did not lead to proliferation

B5: Der p1: house dust mite allergen used as comparator antigen (protein)
chain: TNACSINGNAPAEIDLRQMRTVTPIRMQGGCGSCWAFSGVAATESAYLAYRNQSLDLAEQELVDCASQHGCHGDTIPRGIEYIQHNGVVQESYYRYVAREQSCRRPNAQRFGISNYCQIYPPNVNKIREALAQTHSAIAVIIGIKDLDAFRHYDGRTIIQRDNGYQPNYHAVNIVGYSNAQGVDYWIVRNSWDTNWGDNGYGYFAANIDLMMIEEYPYVVIL
- proliferation of PBMC [8, 9]: did not lead to proliferation

— patent US10434170B2, “Immunoregulatory vaccine” (S-TARGET THERAPEUTICS GMBH, priority 2012, dated 2019)
